Data from PMC9841404, “Werner syndrome protein works as a dimer for unwinding and replication fork regression” (Nucleic Acids Research, 2022).

How the values were obtained:
[1] = target: the molecule itself; assay: single-molecule GFP photobleaching step counting (TIRF microscopy); immobilised forked DNA incubated with 24 nM GFP-tagged WRN and 1 nM RPA, unbound washed out; steps counted in the absence of ATP; only molecules with unwinding activity (Cy3-Cy5 FRET after 1 mM ATP-Mg2+) counted; room temperature
[2] = target: the molecule itself; assay: single-molecule GFP photobleaching step counting (TIRF microscopy); real-time binding of GFP-tagged WRN to model replication fork immobilised via biotin-streptavidin; all bound molecules counted; no ATP; 10 mM Tris-HCl pH 8.0, 50 mM NaCl; room temperature; oligomer counted on DNA

B1: GFP-tagged Werner syndrome protein (f:GFP-WRN) (enzyme)
chain: not shown
notes: Werner syndrome protein (WRN), human; cDNA encoding full-length WRN generated by RT-PCR from total RNA of HEK293T cells, subcloned into pFASTBAC1; Number of copies depends on the condition: dimer or tetramer on DNA (see measurements); also called GFP-tagged WRN; not shown: FLAG, N-terminal, kept; GFP, N-terminal, kept
For B1, the “stoichiometry N” value [1] was 2 and the “stoichiometry N” value [2] was 4.
